# Results published in publication PMC2995173.
# Target: HA-Rad18 S-Box-A (human) (UniProt Q9NS91)
# Test: co-IP
substance,measurement,value
DNA Polymerase eta (Polη) (from UniProt Q9Y253 1-713) (natural protein),percent reduction of association relative to Rad18 WT (UV-treated cells),> 80%
